Experimental data reported in US12404345B2, “Humanized antibodies against iRHOM2” (SCIRHOM GMBH, priority 2021, dated 2025).
Positions count from the first letter of the chain named.

T1: human iRhom2 (Homo sapiens, UniProt Q6PJF5)
T1 construct: MEF-DKO-hiR2-FL-WT-T7 cells stably expressing human iRhom2 full length wild type; expressed in transfected cells; host or cells: immortalized iRhom1/2-/- double knockout mouse embryonic fibroblasts, pMSCV retroviral infection
T1 sequence (Q6PJF5 1-856): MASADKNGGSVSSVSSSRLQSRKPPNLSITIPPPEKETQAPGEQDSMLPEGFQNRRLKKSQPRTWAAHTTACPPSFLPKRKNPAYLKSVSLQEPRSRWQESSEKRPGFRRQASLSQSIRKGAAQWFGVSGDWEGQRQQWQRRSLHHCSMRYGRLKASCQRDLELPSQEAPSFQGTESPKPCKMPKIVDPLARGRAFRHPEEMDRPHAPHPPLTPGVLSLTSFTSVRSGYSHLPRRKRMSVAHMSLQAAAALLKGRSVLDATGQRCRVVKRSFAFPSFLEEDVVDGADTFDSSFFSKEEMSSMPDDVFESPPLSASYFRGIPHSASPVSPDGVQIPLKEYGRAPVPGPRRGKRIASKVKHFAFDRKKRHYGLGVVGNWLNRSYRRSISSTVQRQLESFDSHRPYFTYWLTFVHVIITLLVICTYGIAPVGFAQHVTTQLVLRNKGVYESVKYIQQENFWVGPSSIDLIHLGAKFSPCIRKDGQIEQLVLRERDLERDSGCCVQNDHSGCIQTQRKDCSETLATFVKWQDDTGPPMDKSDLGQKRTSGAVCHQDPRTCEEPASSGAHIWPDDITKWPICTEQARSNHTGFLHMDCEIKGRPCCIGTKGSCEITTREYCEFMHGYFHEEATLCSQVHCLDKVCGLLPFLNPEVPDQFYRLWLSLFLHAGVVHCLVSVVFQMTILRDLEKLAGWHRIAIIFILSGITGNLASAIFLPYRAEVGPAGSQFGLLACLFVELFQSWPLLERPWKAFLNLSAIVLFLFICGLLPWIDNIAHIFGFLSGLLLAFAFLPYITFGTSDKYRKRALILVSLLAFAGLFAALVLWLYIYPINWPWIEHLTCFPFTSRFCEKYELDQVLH

B1: 23-B-04: humanized antibody binding human iRhom2; HCVD SEQ ID NO 25, LCVD SEQ ID NO 29 (antibody, V domains shown)
VH: QVTLRESGPALVKPTQTLTLTCTFSGFSLSTFGMGVGWIRQPPGKALEWLAHIWWDDEKYYNSALKSRLTISKDTSKNQVVLTITNMDPVDTATYYCARISNYGSNYWYFNVWGQGTLVTVSS
VL: AIQLTQSPSSLSASVGDRVTITCRASSSVSYMYWYQQKPGKAPKVLIYDTSNLASGVPSRFSGSGSGTDYTLTISSLQPEDFATYYCQQWNAYPLTFGQGTKLEIK
modifications: antibody sequences
B2: 42-B-04: humanized antibody binding human iRhom2; HCVD SEQ ID NO 41, LCVD SEQ ID NO 45 (antibody, V domains shown)
VH: B1 VH with M34R, S101Q, N111D
VL: B1 VL with S28R, V29I, Y33F
modifications: antibody sequences
B3: 42-B-02: humanized antibody binding human iRhom2; HCVD SEQ ID NO 33, LCVD SEQ ID NO 37 (antibody, V domains shown)
VH: B1 VH with M34R, S101Q, N111D
VL: B1 VL with S28R, V29I, Y33F, A92S
modifications: antibody sequences
B4: 16-B-03: humanized antibody binding human iRhom2; HCVD SEQ ID NO 1, LCVD SEQ ID NO 5 (antibody, V domains shown)
VH: QVTLRESGPALVKPTQTLTLTCTFSGFSLSTFALGVGWIRQPPGKALEWLAHIWWDDDKYYNPALKSRLTISKDTSKNQVVLTITNMDPVDTATYYCARITTYYYGMDYWGQGTLVTVSS
VL: EIVMTQSPDFQSVTPKEKVTITCRASQSIGNHLHWYQQKPDASPKLLIKYASQSISGVPSRFSGSGSGTDFTLTINSLEAEDAATYFCQQSYQWPLTFGQGTKLEIK
modifications: antibody sequences
B5: 16-B-05: humanized antibody binding human iRhom2; HCVD SEQ ID NO 9, LCVD SEQ ID NO 13 (antibody, V domains shown)
VH: B4 VH with D57E
VL: B4 VL with Q93N
modifications: antibody sequences
B6: 16-B-07: humanized antibody binding human iRhom2; HCVD SEQ ID NO 17, LCVD SEQ ID NO 21 (antibody, V domains shown)
VH: B4 VH with D57E
VL: B4 VL
modifications: antibody sequences

What follows are molecules tested against T1, human iRhom2 (assay: Affinity determination by indirect FACS scatchard analysis on L929-2041-hiR2-FL-WT-T7 cells). Settings: 22 two-fold dilutions starting at 160 μg/ml, on ice 1 hour.
Format: binding
Experimental: In this study, affinity measurements of the humanized antibodies 16-B-03, 16-B-05, 16-B-07, 23-B-04, 42-B-02 and 42-B-04 of the invention were performed by indirect FACS scatchard analysis on […] cells, a murine cell line expressing human iRhom2.
The resulting L929 mouse iRhom2 knock-out cell line was afterwards infected with different human iRhom2 constructs to obtain cell line derivatives, stably expressing different human iRhom2 proteins, that allow for binding analyses to different iRhom2 variants in the same genetic background.
In brief, mRhbdf2.3 IVT gRNA ([…]) was synthesized at Thermo Fisher Scientific GeneArt GmbH, Regensburg, Germany. One day post seeding in 24 well plates, L929 parental cells were transfected according to GeneArt CRISPR Nuclease mRNA user guide (Thermo Fisher Scientific, USA) with the gRNA/GeneArt Platinium Cas9 Nucelase (Thermo Fisher Scientific, USA) mix using Lipofectamine CRISPRMAX Transfection Reagent (Thermo Fisher Scientific, USA). 3 days post transfection, cells were lysed and DNA was extracted for amplification of specific PCR products using the mRhbdf2.3 fwd ([…])/mRhbdf2.3 rev ([…]) 5primer pair (Thermo Fisher Scientific, USA). […] Cleavage assay PCR products were also analyzed on Invitrogen 2% E-Gel Size Select agarose gels. Two rounds of subsequent sub cloning of the identified polyclonal L929 population using limited dilution technique were performed, using the Cleavage Detection Kit for identification of positive sub clones. Thereby, the most promising positive sub clone identified in the first round, named 1029, was further sub cloned in the second round to obtain the final clone, named 2041. The monoclonal cell population derived from this sub clone is named L929-2041 and was used for subsequent infection (according to the procedure described in Example 3) with the human iRhom2 construct hiR2-FL-WT-T7 for the generation of the cell lines L929-2041-hiR2-FL-WT-T7.
In brief, L929-2041-hiR2-FL-T7 were harvested with 10 mM EDTA in PBS, washed and resuspended in FACS buffer (PBS, 3% FBS, 0.05% sodium azide), and seeded in Nunc U-bottom 96-well plates (Thermo Fisher Scientific, USA) at approximately 3×10^5 cells per well. In order to pellet cells and remove supernatants, the plates were centrifuged at 1,500 rpm and 4° C. for 3 minutes. For primary staining, cells were resuspended in 100 μl per well of either FACS buffer alone (controls) or serial two-fold dilutions (in total 22 concentrations) of the humanized antibodies 16-B-03, 16-B-05, 16-B-07, 23-B-04, 42-B-02 and 42-B-04 of the invention in FACS buffer starting at 160 μg/ml and incubated on ice for 1 hour. Afterwards, plates were centrifuged at 1,500 rpm and 4° C. for 3 minutes and washed twice with 200 μl per well of FACS buffer. For secondary staining, cells were spun down and resuspended in 100 μl per well of PE-conjugated goat anti-human IgG F(ab′)2 detection fragment (Dianova, Germany) diluted 1:100 in FACS buffer. Protected from light, the cell suspensions were incubated on ice for 1 hour. Plates were then centrifuged at 1,500 rpm and 4° C. for 3 minutes and washed three times with 200 μl per well of FACS buffer. Finally, cells were resuspended in 150 μl per well of FACS buffer and analyzed using a BD Accuri™ C6 Plus flow cytometer (Becton Dickinson, Germany). Applying Prism8 software (GraphPad Software, USA), the respective KD value for each of the antibodies of the invention were calculated.

KD values for binding to L929-2041-hiR2-FL-T7 cells | Molecule
subnanomolar to low nanomolar range | B1
subnanomolar to low nanomolar range | B2
subnanomolar to low nanomolar range | B3
subnanomolar to low nanomolar range | B4
subnanomolar to low nanomolar range | B5
subnanomolar to low nanomolar range | B6
